These results are taken from PMC8024992.

The test addresses ubiquitin-rhodamine (Ub-Rho) (UniProt P0CG48).

“USP1^WT-UAF1 (active) (from UniProt O94782;Q8TAF3) (complex)”: the KM (= k off/k on) from the KinTek global fit of activity data; +UAF1, Ub-Rho was 5.94 µM.
